Article PMC10524804

System: CpxR-R195H (Klebsiella pneumoniae HS11286 (ST11)?)
Test: ITC
Conditions: EMSA: Beyotime binding buffer (poly(dI-dC), DTT, glycerol, EDTA, NaCl, MgCl2, Tris), room temp, 2 pmol probe; footprinting: 50 mM Tris-HCl pH 8.0, 100 mM KCl …

Substance: PblaKPC (Tn1721, ST11), unlabeled
- binding signal (fold lower affinity than wild type): 100
